The values that follow come from paper PMC4919432, “The Dimeric Architecture of Checkpoint Kinases Mec1^ATR and Tel1^ATM Reveal a Common Structural Organization*” (The Journal of Biological Chemistry, 2016).

This assay has as its target T1, Mec1 (yeast (budding yeast), UniProt P38111 1-2368).
T1 construct: Mec1, yeast orthologue of mammalian ATR; 2,368 amino acids as the introduction says; The Mec1 subunit of m1, for the rows of two subunits; also called Mec1^ATR; yeast orthologue of ATR; source: yeast, overexpressed from pBL904 together with Ddc2, purified as the Mec1·Ddc2 complex (IgG-Sepharose, HRV 3C cleavage)
Put plainly: SEC; Mec1·Ddc2 on Superose 6 HR 10/30, 0.3 ml/min; 50 mM HEPES-KOH pH 7.4, 200 mM KCl, 10% glycerol, 0.1% Tween 20, 0.01% Nonidet P-40, 1 mM EDTA, 1 mM EGTA, 2 mM DTT; size against Bio-Rad gel filtration standards; peak fractions on SDS-PAGE. The following applies: both partners purified. On the technique in general: SEC sorts molecules by how far they enter the pores of the column.

T1 sequence (P38111 whole entry): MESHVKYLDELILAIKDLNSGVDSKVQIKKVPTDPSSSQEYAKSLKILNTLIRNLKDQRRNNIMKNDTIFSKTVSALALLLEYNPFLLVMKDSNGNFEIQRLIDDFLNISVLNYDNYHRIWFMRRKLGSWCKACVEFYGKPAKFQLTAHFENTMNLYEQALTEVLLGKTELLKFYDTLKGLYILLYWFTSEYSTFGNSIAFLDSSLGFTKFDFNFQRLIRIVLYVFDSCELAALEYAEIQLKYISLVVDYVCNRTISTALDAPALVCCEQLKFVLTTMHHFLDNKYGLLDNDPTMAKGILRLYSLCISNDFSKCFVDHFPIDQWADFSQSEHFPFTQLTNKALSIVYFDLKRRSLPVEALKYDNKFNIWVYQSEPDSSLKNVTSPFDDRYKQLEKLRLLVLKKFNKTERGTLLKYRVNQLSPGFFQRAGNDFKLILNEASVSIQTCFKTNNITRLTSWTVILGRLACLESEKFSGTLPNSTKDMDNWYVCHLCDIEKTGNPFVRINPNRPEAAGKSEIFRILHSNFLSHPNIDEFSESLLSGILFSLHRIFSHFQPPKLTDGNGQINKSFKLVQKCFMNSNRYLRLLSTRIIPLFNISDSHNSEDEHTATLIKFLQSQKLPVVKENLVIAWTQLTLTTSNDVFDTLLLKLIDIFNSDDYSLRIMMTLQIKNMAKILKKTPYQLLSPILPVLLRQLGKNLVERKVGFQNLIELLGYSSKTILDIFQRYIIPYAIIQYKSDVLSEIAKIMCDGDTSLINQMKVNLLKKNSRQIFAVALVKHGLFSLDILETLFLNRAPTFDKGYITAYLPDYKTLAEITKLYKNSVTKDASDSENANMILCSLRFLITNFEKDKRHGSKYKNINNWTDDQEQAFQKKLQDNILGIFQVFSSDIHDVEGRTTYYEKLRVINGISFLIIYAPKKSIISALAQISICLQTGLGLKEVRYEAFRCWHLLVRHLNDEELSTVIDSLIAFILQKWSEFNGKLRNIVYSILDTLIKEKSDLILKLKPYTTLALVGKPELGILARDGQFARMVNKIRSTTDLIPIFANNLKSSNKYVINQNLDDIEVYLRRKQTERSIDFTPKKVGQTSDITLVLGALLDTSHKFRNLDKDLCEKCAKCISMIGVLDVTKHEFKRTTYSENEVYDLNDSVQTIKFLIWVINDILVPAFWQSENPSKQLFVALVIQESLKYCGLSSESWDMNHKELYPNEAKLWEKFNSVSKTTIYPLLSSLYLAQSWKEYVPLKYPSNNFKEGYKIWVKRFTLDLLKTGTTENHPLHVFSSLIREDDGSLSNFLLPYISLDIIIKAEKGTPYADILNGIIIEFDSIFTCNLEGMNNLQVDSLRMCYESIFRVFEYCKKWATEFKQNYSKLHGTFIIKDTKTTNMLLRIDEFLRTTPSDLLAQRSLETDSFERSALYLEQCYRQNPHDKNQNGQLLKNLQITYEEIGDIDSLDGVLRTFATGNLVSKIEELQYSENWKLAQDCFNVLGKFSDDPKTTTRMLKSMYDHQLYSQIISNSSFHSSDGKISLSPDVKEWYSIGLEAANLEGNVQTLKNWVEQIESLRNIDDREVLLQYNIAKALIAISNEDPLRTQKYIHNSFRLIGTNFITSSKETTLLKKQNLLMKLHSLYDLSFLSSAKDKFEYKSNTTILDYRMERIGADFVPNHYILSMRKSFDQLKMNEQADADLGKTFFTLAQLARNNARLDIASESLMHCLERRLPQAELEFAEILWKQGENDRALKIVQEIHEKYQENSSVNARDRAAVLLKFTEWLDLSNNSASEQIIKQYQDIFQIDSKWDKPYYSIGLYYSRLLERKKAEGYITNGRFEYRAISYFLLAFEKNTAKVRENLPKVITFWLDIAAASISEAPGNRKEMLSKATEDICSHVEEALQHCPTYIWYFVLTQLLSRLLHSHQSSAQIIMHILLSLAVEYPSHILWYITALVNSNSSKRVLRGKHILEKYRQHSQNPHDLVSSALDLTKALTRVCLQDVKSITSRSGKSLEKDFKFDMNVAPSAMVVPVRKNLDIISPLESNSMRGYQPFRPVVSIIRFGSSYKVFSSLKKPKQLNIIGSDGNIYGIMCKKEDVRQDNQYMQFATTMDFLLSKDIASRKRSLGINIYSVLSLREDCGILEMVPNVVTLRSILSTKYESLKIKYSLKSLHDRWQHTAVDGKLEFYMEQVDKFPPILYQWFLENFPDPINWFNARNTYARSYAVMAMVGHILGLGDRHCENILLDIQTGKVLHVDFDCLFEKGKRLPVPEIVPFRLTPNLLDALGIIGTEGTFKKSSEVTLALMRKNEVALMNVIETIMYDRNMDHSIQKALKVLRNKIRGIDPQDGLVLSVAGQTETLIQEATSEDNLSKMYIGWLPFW

B1: Ddc2 (natural protein, yeast (budding yeast), UniProt Q04377 1-747, looked up)
chain: MRRETVGEFSSDDDDDILLELGTRPPRFTQIPPSSAALQTQIPTTLEVTTTTLNNKQSKNDNQLVNQLNKAQGEASMLRDKINFLNIEREKEKNIQAVKVNELQVKHLQELAKLKQELQKLEDEKKFLQMEARGKSKREVITNVKPPSTTLSTNTNTITPDSSSVAIEAKPQSPQSKKRKISDNLLKKNMVPLNPNRIIPDETSLFLESILLHQIIGADLSTIEILNRLKLDYITEFKFKNFVIAKGAPIGKSIVSLLLRCKKTLTLDRFIDTLLEDIAVLIKEISVHPNESKLAVPFLVALMYQIVQFRPSATHNLALKDCFLFICDLIRIYHHVLKVPIHESNMNLHVEPQIFQYELIDYLIISYSFDLLEGILRVLQSHPKQTYMEFFDENILKSFEFVYKLALTISYKPMVNVIFSAVEVVNIITSIILNMDNSSDLKSLISGSWWRDCITRLYALLEKEIKSGDVYNENVDTTTLHMSKYHDFFGLIRNIGDNELGGLISKLIYTDRLQSVPRVISKEDIGMDSDKFTAPIIGYKMEKWLLKLKDEVLNIFENLLMIYGDDATIVNGEMLIHSSKFLSREQALMIERYVGQDSPNLDLRCHLIEHTLTIIYRLWKDHFKQLREEQIKQVESQLIMSLWRFLVCQTETVTANEREMRDHRHLVDSLHDLTIKDQASYYEDAFEDLPEYIEEELKMQLNKRTGRIMQVKYDEKFQEMARTILESKSFDLTTLEEADSLYISMGL
notes: Ddc2 (also called Lcd1 or Pie1), yeast orthologue of ATRIP; The Ddc2 subunit of m1, for the rows of two subunits; also called Lcd1; Pie1; source: yeast, overexpressed from pBL904 together with Mec1, purified as the Mec1·Ddc2 complex (IgG-Sepharose, HRV 3C cleavage)
For B1, the binding result is on record as “binds”.
